Laboratory results published in patent US20110064751A1.

Tests used:
[1] = target: Extra Domain B of fibronectin (EDB) (UniProt P02751); test: SPR (BIACORE), EDB immobilized on the chip, construct as analyte
[2] = target: Extra Domain B of fibronectin (EDB) (UniProt P02751); test: BIACORE SPR, EDB immobilized on the chip, analyte at 1.56, 3.125 and 6.25 nM

Chain of L19 diabody-IL2 fusion protein, 12 amino acid linker (VH): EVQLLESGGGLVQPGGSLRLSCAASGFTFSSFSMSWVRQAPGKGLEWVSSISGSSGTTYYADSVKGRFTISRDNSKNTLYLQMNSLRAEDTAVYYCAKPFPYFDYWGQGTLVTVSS
Chain of L19 diabody-IL2 fusion protein, 12 amino acid linker (chain): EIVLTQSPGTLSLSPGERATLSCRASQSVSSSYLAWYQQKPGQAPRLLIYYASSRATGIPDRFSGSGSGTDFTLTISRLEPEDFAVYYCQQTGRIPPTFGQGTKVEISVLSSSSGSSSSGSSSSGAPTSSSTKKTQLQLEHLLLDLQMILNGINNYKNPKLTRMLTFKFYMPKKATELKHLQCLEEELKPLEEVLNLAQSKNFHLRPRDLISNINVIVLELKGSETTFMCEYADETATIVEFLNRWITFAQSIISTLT
Chain of Extra Domain B of fibronectin (EDB) (P02751 1266-1356 limits assumed): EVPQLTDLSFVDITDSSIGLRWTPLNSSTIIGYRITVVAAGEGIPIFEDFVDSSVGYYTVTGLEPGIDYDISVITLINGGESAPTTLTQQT

Substance: L19 diabody-IL2 fusion protein, 12 amino acid linker
- Kd [1]: 0.36 nM
- Kd [2]: 0.362 nM
- koff [2]: 0.000769 s⁻¹
- kon [2]: 2.13e+06 M⁻¹ s⁻¹
